Target: the molecule itself
Assay: crystal structure; cocrystal of recombinant NAMPT with the small molecule PF403, hanging drop vapor diffusion, 1.86 Å; NAMPT seen as a dimer with two PF403 molecules

B1: nicotinamide phosphoribosyl transferase (NAMPT), recombinant, His-tagged (enzyme, human)
chain: MNPAAEAEFNILLATDSYKVTHYKQYPPNTSKVYSYFECREKKTENSKLRKVKYEETVFYGLQYILNKYLKGKVVTKEKIQEAKDVYKEHFQDDVFNEKGWNYILEKYDGHLPIEIKAVPEGFVIPRGNVLFTVENTDPECYWLTNWIETILVQSWYPITVATNSREQKKILAKYLLETSGNLDGLEYKLHDFGYRGVSSQETAGIGASAHLVNFKGTDTVAGLALIKKYYGTKDPVPGYSVPAAEHSTITAWGKDHEKDAFEHIVTQFSSVPVSVVSDSYDIYNACEKIWGEDLRHLIVSRSTQAPLIIRPDSGNPLDTVLKVLEILGKKFPVTENSKGYKLLPPYLRVIQGDGVDINTLQEIVEGMKQKMWSIENIAFGSGGGLLQKLTRDLLNCSFKCSYVVTNGLGINVFKDPVADPNKRSKKGRLSLHRTPAGNFVTLEEGKGDLEEYGQDLLHTVFKNGKVTKSYSFDEIRKNAQLNIELEAAHH
notes: nicotinamide phosphoribosyl transferase (NAMPT), human; Dimer in the cocrystal structure with the small molecule PF403 (PDB 8Y55); also called recombinant NAMPT; WT NAMPT; source: E. coli BL21 (DE3), pET-28a(+), purified (Ni-NTA)
- binding result: binds

From publication PMC12138128, “Thermal proteome profiling (TPP) reveals NAMPT as the anti-glioma target of phenanthroindolizidine alkaloid PF403” (Acta Pharmaceutica Sinica. B, 2025)
